Measured values taken from WO2013005649A1.

biological target: human CCR6 N-terminal extracellular domain Fc fusion protein NthCCR6-IgG4Fc (human); assay: SPR, Biacore T100; NthCCR6-IgG4Fc captured on anti-human IgG CM5 chip, antibody injected
Sequence (chain, as listed by the source limits assumed): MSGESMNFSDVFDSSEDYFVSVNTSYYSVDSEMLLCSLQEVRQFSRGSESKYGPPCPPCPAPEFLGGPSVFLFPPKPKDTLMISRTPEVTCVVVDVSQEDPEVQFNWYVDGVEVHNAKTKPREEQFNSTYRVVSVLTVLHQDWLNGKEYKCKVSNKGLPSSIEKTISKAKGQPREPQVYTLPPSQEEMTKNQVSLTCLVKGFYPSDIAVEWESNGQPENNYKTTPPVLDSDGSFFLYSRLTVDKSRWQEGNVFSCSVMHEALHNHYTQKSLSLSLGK

Kd	Substance
20 nM	commercially available anti-human CCR6 monoclonal antibody 11A9 (BD Pharmingen)
4.97 nM	commercially available anti-human CCR6 monoclonal antibody R6H1 (eBioscience)
70.9 nM	human CCR6 monoclonal antibody (clone 53103) (R&D Systems)
